Assay results as given in US20170363643A1.

Tests used:
[1] = target: His-tagged recombinant human SMN protein (ProteinTech, catalog # ag14333) (human) (UniProt Q16637); experiment: BLI (BLItz), His-tagged SMN immobilised on the biosensor tip, antibody in solution
[2] = target: His-tagged recombinant human SMN protein (ProteinTech, catalog # ag14333) (human) (UniProt Q16637); experiment: Erenna sandwich assay, capture PT 60154-1-Ig; SMN 10 pg/mL, MPs 10 µg/well, Det Ab 50 ng/mL, Cap Ab/MP 25 µg/mg
[3] = target: His-tagged recombinant human SMN protein (ProteinTech, catalog # ag14333) (human) (UniProt Q16637); experiment: Erenna sandwich assay, capture PT 60154-1-Ig; SMN 10 pg/mL, MPs 10 µg/well, Det Ab 100 ng/mL, Cap Ab/MP 12.5 µg/mg
[4] = target: His-tagged recombinant human SMN protein (ProteinTech, catalog # ag14333) (human) (UniProt Q16637); experiment: Erenna sandwich assay, capture PT 60154-1-Ig; SMN 10 pg/mL, MPs 10 µg/well, Det Ab 1000 ng/mL, Cap Ab/MP 12.5 µg/mg
[5] = target: His-tagged recombinant human SMN protein (ProteinTech, catalog # ag14333) (human) (UniProt Q16637); experiment: Erenna sandwich assay, capture PT 60154-1-Ig; SMN 10 pg/mL, MPs 10 µg/well, Det Ab 1000 ng/mL, Cap Ab/MP 25 µg/mg
[6] = target: His-tagged recombinant human SMN protein (ProteinTech, catalog # ag14333) (human) (UniProt Q16637); experiment: Erenna sandwich assay, capture PT 60154-1-Ig; SMN 10 pg/mL, MPs 5 µg/well, Det Ab 50 ng/mL, Cap Ab/MP 25 µg/mg
[7] = target: His-tagged recombinant human SMN protein (ProteinTech, catalog # ag14333) (human) (UniProt Q16637); experiment: Erenna sandwich assay, capture PT 60154-1-Ig; SMN 10 pg/mL, MPs 10 µg/well, Det Ab 100 ng/mL, Cap Ab/MP 25 µg/mg
[8] = target: His-tagged recombinant human SMN protein (ProteinTech, catalog # ag14333) (human) (UniProt Q16637); experiment: Erenna sandwich assay, capture PT 60154-1-Ig; SMN 10 pg/mL, MPs 5 µg/well, Det Ab 500 ng/mL, Cap Ab/MP 12.5 µg/mg
[9] = target: His-tagged recombinant human SMN protein (ProteinTech, catalog # ag14333) (human) (UniProt Q16637); experiment: Erenna sandwich assay, capture PT 60154-1-Ig; SMN 10 pg/mL, MPs 10 µg/well, Det Ab 500 ng/mL, Cap Ab/MP 12.5 µg/mg
[10] = target: His-tagged recombinant human SMN protein (ProteinTech, catalog # ag14333) (human) (UniProt Q16637); experiment: Erenna sandwich assay, capture PT 60154-1-Ig; SMN 10 pg/mL, MPs 5 µg/well, Det Ab 100 ng/mL, Cap Ab/MP 25 µg/mg
[11] = target: His-tagged recombinant human SMN protein (ProteinTech, catalog # ag14333) (human) (UniProt Q16637); experiment: Erenna sandwich assay, capture PT 60154-1-Ig; SMN 10 pg/mL, MPs 5 µg/well, Det Ab 1000 ng/mL, Cap Ab/MP 25 µg/mg
[12] = target: His-tagged recombinant human SMN protein (ProteinTech, catalog # ag14333) (human) (UniProt Q16637); experiment: Erenna sandwich assay, capture PT 60154-1-Ig; SMN 10 pg/mL, MPs 5 µg/well, Det Ab 500 ng/mL, Cap Ab/MP 25 µg/mg
[13] = target: His-tagged recombinant human SMN protein (ProteinTech, catalog # ag14333) (human) (UniProt Q16637); experiment: Erenna sandwich assay, capture PT 60154-1-Ig; SMN 10 pg/mL, MPs 10 µg/well, Det Ab 50 ng/mL, Cap Ab/MP 12.5 µg/mg
[14] = target: His-tagged recombinant human SMN protein (ProteinTech, catalog # ag14333) (human) (UniProt Q16637); experiment: Erenna sandwich assay, capture PT 60154-1-Ig; SMN 10 pg/mL, MPs 5 µg/well, Det Ab 1000 ng/mL, Cap Ab/MP 12.5 µg/mg
[15] = target: His-tagged recombinant human SMN protein (ProteinTech, catalog # ag14333) (human) (UniProt Q16637); experiment: Erenna sandwich assay, capture PT 60154-1-Ig; SMN 10 pg/mL, MPs 10 µg/well, Det Ab 500 ng/mL, Cap Ab/MP 25 µg/mg
[16] = target: His-tagged recombinant human SMN protein (ProteinTech, catalog # ag14333) (human) (UniProt Q16637); experiment: Erenna sandwich assay, capture PT 60154-1-Ig; SMN 10 pg/mL, MPs 5 µg/well, Det Ab 100 ng/mL, Cap Ab/MP 12.5 µg/mg
[17] = target: His-tagged recombinant human SMN protein (ProteinTech, catalog # ag14333) (human) (UniProt Q16637); experiment: Erenna sandwich assay, capture PT 60154-1-Ig; SMN 10 pg/mL, MPs 5 µg/well, Det Ab 50 ng/mL, Cap Ab/MP 12.5 µg/mg

UniProt Q16637, sequence (Q16637 whole entry): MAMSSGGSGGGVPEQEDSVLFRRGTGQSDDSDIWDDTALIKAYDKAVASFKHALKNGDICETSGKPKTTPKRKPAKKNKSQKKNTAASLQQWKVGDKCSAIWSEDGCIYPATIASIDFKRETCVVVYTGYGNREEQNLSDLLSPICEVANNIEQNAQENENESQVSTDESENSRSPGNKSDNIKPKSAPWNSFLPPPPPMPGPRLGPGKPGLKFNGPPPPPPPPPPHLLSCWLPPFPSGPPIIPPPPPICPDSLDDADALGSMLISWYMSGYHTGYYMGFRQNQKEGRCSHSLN

Question: Which Kd [1] does the source give for “ProteinTech anti-SMN2 (catalog #60154-2-Ig) (antibody)” here?
Answer: The Kd was < 1 nM.

Question: And the koff [1]?
Answer: Its koff is < 1e-07 s⁻¹.

Question: What about the kon [1] of the same substance?
Answer: Its kon is 884 M⁻¹ s⁻¹.

Question: “BD Biosciences anti-SMN (catalog #610647) (antibody)” was tested. Which kon [1] did it give?
Answer: The kon was 637000 M⁻¹ s⁻¹.

Question: What does the source list for “Millipore anti-SMN2 (catalog # MABE230) (antibody)”?
Answer: detected events (DE) (detected events) [2]: 269; detected events (DE) (detected events) [3]: 523; detected events (DE) (detected events) [4]: 3720; detected events (DE) (detected events) [5]: 3370; detected events (DE) (detected events) [6]: 256; detected events (DE) (detected events) [7]: 505; detected events (DE) (detected events) [8]: 1960; detected events (DE) (detected events) [9]: 2180; detected events (DE) (detected events) [10]: 481; detected events (DE) (detected events) [11]: 3440; detected events (DE) (detected events) [12]: 2040; detected events (DE) (detected events) [13]: 302; detected events (DE) (detected events) [14]: 3570; detected events (DE) (detected events) [15]: 2140; detected events (DE) (detected events) [16]: 501; Kd [1]: < 0.001 nM; koff [1]: < 1e-07 s⁻¹; kon [1]: 105000 M⁻¹ s⁻¹; detected events (DE) (detected events) [17]: 231

Question: With “Enzo anti-SMN1 (catalog # ADI-NBA-202-200) (antibody)” as the substance, how does the Kd [1] read?
Answer: Its Kd is < 0.1 nM.

Question: What about the koff [1] of the same substance?
Answer: The koff was < 1e-07 s⁻¹.

Question: What about the kon [1] of the same substance?
Answer: The kon was 12300 M⁻¹ s⁻¹.
